# Experimental data as given in patent US20170247475A1 (Boehringer Ingelheim, published 2017).
# Like-named read-outs stand apart in the source and are kept apart here.
# T1: hAng2
# T1 construct: also called human Ang2
# T1 chain: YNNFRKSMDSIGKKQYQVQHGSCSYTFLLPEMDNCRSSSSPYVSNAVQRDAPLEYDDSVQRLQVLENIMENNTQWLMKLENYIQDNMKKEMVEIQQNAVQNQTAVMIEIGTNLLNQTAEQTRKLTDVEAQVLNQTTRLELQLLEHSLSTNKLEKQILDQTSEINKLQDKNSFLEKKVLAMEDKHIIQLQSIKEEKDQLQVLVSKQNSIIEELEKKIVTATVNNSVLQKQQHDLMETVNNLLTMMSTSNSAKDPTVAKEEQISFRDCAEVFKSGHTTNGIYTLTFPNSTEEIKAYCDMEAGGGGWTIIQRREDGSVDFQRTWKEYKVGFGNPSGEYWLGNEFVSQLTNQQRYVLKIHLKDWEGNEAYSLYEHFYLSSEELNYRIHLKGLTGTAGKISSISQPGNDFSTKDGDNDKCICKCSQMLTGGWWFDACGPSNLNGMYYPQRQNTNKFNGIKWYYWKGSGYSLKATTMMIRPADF
# T2: mAng2
# T2 construct: also called mouse Ang2
# T2 chain: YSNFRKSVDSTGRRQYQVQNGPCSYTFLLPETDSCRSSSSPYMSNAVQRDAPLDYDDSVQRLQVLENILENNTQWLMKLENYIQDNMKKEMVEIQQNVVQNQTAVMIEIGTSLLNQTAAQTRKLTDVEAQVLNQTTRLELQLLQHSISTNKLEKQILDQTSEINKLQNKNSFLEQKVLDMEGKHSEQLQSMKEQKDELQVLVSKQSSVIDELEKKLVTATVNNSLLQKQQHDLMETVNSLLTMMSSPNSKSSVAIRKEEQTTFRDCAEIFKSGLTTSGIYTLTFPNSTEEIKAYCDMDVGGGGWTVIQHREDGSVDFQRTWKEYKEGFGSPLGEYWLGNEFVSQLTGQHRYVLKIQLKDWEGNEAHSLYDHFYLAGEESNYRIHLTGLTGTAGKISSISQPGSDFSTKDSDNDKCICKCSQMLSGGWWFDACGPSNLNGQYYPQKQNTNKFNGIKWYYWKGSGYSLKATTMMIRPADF
# T3: recombinant human VEGF121 (human, UniProt P15692-9 27-147)
# T3 construct: also called rhVEGF121; hVEGF121
# T3 sequence (looked up): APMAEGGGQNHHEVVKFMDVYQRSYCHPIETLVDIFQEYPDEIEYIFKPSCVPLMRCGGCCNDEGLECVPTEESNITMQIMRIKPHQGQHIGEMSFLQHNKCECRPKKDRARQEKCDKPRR
# T4: human VEGF-C (human, UniProt P49767 103-227)
# T4 construct: also called hVEGF-C
# T4 sequence (looked up): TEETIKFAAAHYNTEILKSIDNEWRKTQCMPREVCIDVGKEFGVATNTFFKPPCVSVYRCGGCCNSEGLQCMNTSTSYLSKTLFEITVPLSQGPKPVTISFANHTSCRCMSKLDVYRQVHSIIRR
# T5: human PIGF (human, UniProt P49763-2 21-149, limits assumed)
# T5 construct: also called hPIGF; PLGF
# T5 sequence (looked up): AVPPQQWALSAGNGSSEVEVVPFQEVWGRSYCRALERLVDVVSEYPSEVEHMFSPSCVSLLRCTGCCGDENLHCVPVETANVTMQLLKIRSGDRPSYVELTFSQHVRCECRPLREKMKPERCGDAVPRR
# T6: human VEGF-B (human, UniProt P49765-2 22-188, limits assumed)
# T6 construct: also called hVEGF-B
# T6 sequence (looked up): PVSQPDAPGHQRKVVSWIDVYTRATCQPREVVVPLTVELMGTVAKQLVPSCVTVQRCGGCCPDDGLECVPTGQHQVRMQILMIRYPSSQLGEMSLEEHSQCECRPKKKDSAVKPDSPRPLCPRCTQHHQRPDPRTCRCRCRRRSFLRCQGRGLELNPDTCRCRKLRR
# T7: human VEGF-D (human, UniProt O43915 93-201)
# T7 construct: also called hVEGF-D
# T7 sequence (looked up): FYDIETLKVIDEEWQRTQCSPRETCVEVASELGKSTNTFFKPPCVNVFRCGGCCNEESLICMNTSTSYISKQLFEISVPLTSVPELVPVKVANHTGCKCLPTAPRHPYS
# T8: recombinant mouse VEGF164 (mouse, UniProt Q00731-2 27-190)
# T8 construct: biotinylated in the mVEGFR2 AlphaScreen; also called rmVEGF164; mVEGF164
# T8 sequence (looked up): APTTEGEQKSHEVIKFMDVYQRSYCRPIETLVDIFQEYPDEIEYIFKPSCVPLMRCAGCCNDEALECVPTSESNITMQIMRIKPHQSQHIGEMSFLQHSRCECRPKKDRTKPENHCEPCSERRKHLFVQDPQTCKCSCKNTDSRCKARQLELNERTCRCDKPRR
# B1: ANGBII00003 (VHH)
# bivalent VHH: EVQLVESGGGLVQVGDSLRLSCAASGRTFSTYLMVGWFRQAPGKEREFAAGIWSSGDTAYADSVRGRFTISRDNAKNTVYLQMNSLKTEDTAVYYCAGSYDGNYYIPGFYKDWGQGTLVTVSSGGGGSGGGSEVQLVESGGGLVQVGDSLRLSCAASGRTFSTYLMVGWFRQAPGKEREFAAGIWSSGDTAYADSVRGRFTISRDNAKNTVYLQMNSLKTEDTAVYYCAGSYDGNYYIPGFYKDWGQGTLVTVSS
# notes: homodimeric anti-Ang2 VHH; also called 11B07-9gs-11B07
# B2: VEGFBII010 (VHH)
# chain: EVQLVESGGGLVQTGDSLRLSCEVSGRTFSSYSMGWFRQAQGKEREFVVAISKGGYKYDSVSLEGRFTISKDNAKNTVYLQINSLKPEDTAVYYCASSRAYGSSRLRLADTYEYWGQGTQVTVSSGGGGSGGGGSGGGGSGGGGSGGGGSGGGGSGGGGSEVQLVESGGGLVQTGDSLRLSCEVSGRTFSSYSMGWFRQAQGKEREFVVAISKGGYKYDSVSLEGRFTISKDNAKNTVYLQINSLKPEDTAVYYCASSRAYGSSRLRLADTYEYWGQGTQVTVSS
# notes: bivalent VHH in one chain; also called VEGFBII23B04-35GS-23B04; homodimeric VEGFBII23B04
# B3: ANGBII00004 (VHH)
# bivalent VHH: EVQLVESGGGLVQAGGSLRLSCAASGFTLDDYAIGWFRQAPGKEREGVSSIRDNDGSTYYADSVKGRFTISSDNDKNTVYLQMNSLKPEDTAVYYCAAVPAGRLRFGEQWYPLYEYDAWGQGTLVTVSSGGGGSGGGSEVQLVESGGGLVQAGGSLRLSCAASGFTLDDYAIGWFRQAPGKEREGVSSIRDNDGSTYYADSVKGRFTISSDNDKNTVYLQMNSLKPEDTAVYYCAAVPAGRLRFGEQWYPLYEYDAWGQGTLVTVSS
# notes: homodimeric anti-Ang2 VHH; also called 00027-9gs-00027
# Tests used:
# hAng2 [1] = target: T1, hAng2; assay: competition ELISA, blocking of hAng2 binding to hTie2
# mAng2 [2] = target: T2, mAng2; assay: competition ELISA, blocking of mAng2 binding to mTie2
# cAng2 [3] = target: T9, cAng2 (cynomolgus monkey); assay: competition ELISA, blocking of cAng2 binding to cTie2
# T9 construct: also called cyno Ang2
# VEGF [4] = assay: cell-based or functional assay
# VEGF [5] = assay: cell-based or functional assay; remark: listed apart in the source
# [6] = target: T3, recombinant human VEGF121; assay: binding ELISA, coated rhVEGF121
# Experimental: Binding to recombinant human VEGF121 is assessed via a solid phase binding ELISA. Briefly, recombinant human VEGF121 (R&D Systems, Minneapolis, Minn., USA) is coated overnight at 4° C. at 1 μg/mL in a 96-well MaxiSorp plate (Nunc, Wiesbaden, Germany). Wells are blocked with a casein solution (1% in PBS).
# [7] = target: T10, recombinant human VEGF165 (human, UniProt P15692-4 27-191); assay: binding ELISA, coated rhVEGF165
# T10 construct: also called hVEGF165; rhVEGF165
# human VEGF-C = target: T4, human VEGF-C; assay: binding ELISA on coated VEGFC
# [8] = target: T10, recombinant human VEGF165; assay: VEGF165/hVEGFR1-Fc competition ELISA
# human PIGF = target: T5, human PIGF; assay: binding ELISA on coated PIGF
# Experimental: (§1) Binding to VEGFB, VEGFC, VEGFD and PIGF is assessed via a solid phase binding ELISA. In brief, VEGFB, VEGFC, VEGFD and PIGF (R&D Systems, Minneapolis, Minn., USA) are coated overnight at 4° C. at 1 μg/mL in a 96-well MaxiSorp plate (Nunc, Wiesbaden, Germany). Wells are blocked with a casein solution (1% in PBS). […] As positive controls serial dilutions of the appropriate receptors are taken along and detected with horseradish peroxidase (HRP)-conjugated goat anti-human IgG, Fc specific antibody (Jackson Immuno Research Laboratories Inc., West Grove, Pa., USA) and a subsequent enzymatic reaction in the presence of the substrate TMB (3,3′,5,5′-tetramentylbenzidine) (Pierce, Rockford, Ill., USA).
# [9] = target: T10, recombinant human VEGF165; assay: hVEGF165/hVEGFR2-Fc competition ELISA
# human VEGF-B = target: T6, human VEGF-B; assay: binding ELISA on coated VEGFB
# Experimental: as §1
# human VEGF-D = target: T7, human VEGF-D; assay: binding ELISA on coated VEGF-D
# Experimental: as §1
# [10] = target: T10, recombinant human VEGF165; assay: VEGF165/hVEGFR1-Fc competition AlphaScreen
# Experimental: (§2) Finally, streptavidin donor beads (20 μg/ml) are added and after 1 hour of incubation in the dark, fluorescence is measured on the Envision microplate reader.
# [11] = target: T10, recombinant human VEGF165; assay: hVEGF165/hVEGFR2-Fc competition AlphaScreen
# Experimental: as §2
# [12] = target: T8, recombinant mouse VEGF164; assay: binding ELISA on coated mouse VEGF164
# Experimental: Cross-reactivity to mouse VEGF164 is determined using a binding ELISA. […] Wells are blocked with a casein solution (1% in PBS). […] A mouse VEGF164 reactive mAb is included as positive control.
# [13] = target: T10, recombinant human VEGF165; assay: SPR Biacore T100, hVEGF165 on chip, Two State Reaction model
# Experimental: (§3) Samples are injected for 2 min and allowed to dissociate up to 20 min at a flow rate of 45 μI/min. In between sample injections, the chip surface is regenerated with 100 mM HCl. HBS-EP+(Hepes buffer pH7.4+EDTA) is used as running buffer. Binding curves are fitted using a Two State Reaction model by Biacore T100 Evaluation Software v2.0.1.
# (§4) ^{(a)}KD = kd1/kₐ₁ * (kd2/(kd2 + kₐ₂)) ^{(b)}Curves are fitted using a Two State Reaction model by Biacore T100 Evaluation Software v2.0.1
# [14] = target: T10, recombinant human VEGF165; assay: ka1; SPR Biacore T100, hVEGF165 on chip, Two State Reaction model
# Experimental: as §3, §4
# [15] = target: T10, recombinant human VEGF165; assay: kd1; SPR Biacore T100, hVEGF165 on chip, Two State Reaction model
# Experimental: as §3, §4
# [16] = target: T10, recombinant human VEGF165; assay: SPR Biacore T100, Two State Reaction model; KD = kd1/ka1 * (kd2/(kd2 + ka2))
# Experimental: as §3, §4
# hAng2 [17] = target: T1, hAng2; assay: competition ELISA, blocking of hAng2 binding to hTie2
# mAng2 [18] = target: T2, mAng2; assay: competition ELISA, blocking of mAng2 binding to mTie2
# cAng2 [19] = target: T9, cAng2; assay: competition ELISA, blocking of cAng2 binding to cTie2; remark: listed apart in the source
binder,measurement,setting,value
B1,IC50 (read off the curve),hAng2 [1],~30 pM
same,IC50 (read off the curve),mAng2 [2],~40 pM
same,IC50 (read off the curve),cAng2 [3],~30 pM
B2,"% inhibition, VEGF HUVEC proliferation assay",VEGF [4],95%
same,"IC50 (nM), VEGF HUVEC proliferation assay",VEGF [4],0.22 nM
same,"% inhibition, VEGF HUVEC Erk phosphorylation assay",VEGF [5],92%
same,"IC50 (nM), VEGF HUVEC Erk phosphorylation assay",VEGF [5],0.19 nM
same,EC50,[6],920 pM
same,EC50,[7],428 pM
same,binding result,human VEGF-C,no binding (tested: 5e-7 M)
same,% inhibition,[8],67%
same,IC50,[8],73.5 pM
same,binding result,human PIGF,no binding (tested: 5e-7 M)
same,% inhibition,[9],100%
same,IC50,[9],49 pM
same,binding result,human VEGF-B,no binding (tested: 5e-7 M)
same,binding result,human VEGF-D,no binding (tested: 5e-7 M)
same,% inhibition,[10],70%
same,IC50,[10],21 pM
same,% inhibition,[11],100%
same,IC50,[11],16 pM
same,binding result,[12],binds
same,ka2,[13],0.029 s⁻¹
same,kd2,[13],0.00013 s⁻¹
same,kon,[14],450000 M⁻¹ s⁻¹
same,koff,[15],0.017 s⁻¹
same,Kd,[16],160 pM
B3,IC50 (read off the curve),hAng2 [17],~10 pM
same,IC50 (read off the curve),mAng2 [18],~30 pM
same,IC50 (read off the curve),cAng2 [19],~40 pM
